From patent US20150072922A1, “RNASE 7 ANTIMICROBIAL PEPTIDES” (THE RESEARCH INSTITUTE AT NATIONWIDE CHILDREN'S HOSPITAL, priority 2012, published 2015) come the findings set out here.

“Also recorded” adds a separate entry of the source. Marks after values point to notes of the source that are not given here. No end group written: not given here. *: point of attachment. His tag = six-residue histidine tag at the N-terminus, N[C@@H](Cc1c[nH]cn1)C(=O)N[C@@H](Cc1c[nH]cn1)C(=O)N[C@@H](Cc1c[nH]cn1)C(=O)N[C@@H](Cc1c[nH]cn1)C(=O)N[C@@H](Cc1c[nH]cn1)C(=O)N[C@@H](Cc1c[nH]cn1)C(=O)* A value given as a limit tells only on which side of the number the result lay.

For test [1], the system named is Escherichia coli (UTI89). Kind of test: Antimicrobial kill (microdilution) assay, MIC/MBC by CFU count. The settings on record: for MIC/MBC fold higher than full-length protein, E. coli: compared to full-length RNase 7; for E. coli MIC: lowest concentration that inhibits the growth of 90% of the inoculation; for E. coli MIC / E. coli MBC: 3 hours, 0.1×PBS; for E. coli MBC: minimum bactericidal concentration; for antimicrobial activity against E. coli (in words): MIC/MBC based, mostly compared to full-length RNase 7. The class given is cell-based. The protocol:
(§1) The antimicrobial activity of RNase 7 and its fragments was estimated using a microdilution assay. Briefly, test bacteria (10^5) were incubated with several concentrations of RNase 7 and each fragment in 50 μl 0.1×PBS buffer for 3 hours in a 37° C. incubator. Each reaction was plated on the appropriate medium and grew overnight at 37° C. The antimicrobial activity was determined by the number of colony-forming units (CFUs) the following day. The minimum inhibition concentration (MIC) is defined as the lowest concentration that inhibits the growth of 90% of the inoculation and the minimum bactericidal concentration (MB C) is defined as the lowest concentration at which less than 99.99% of the initial inoculum is viable.
(§2) Antimicrobial activities of the recombinant peptides were estimated with a microdilution assay. Briefly, the test bacteria (10^4 CFUs) were incubated with various concentrations of RNase 7 and each fragment in 50 ul 0.1×PBS buffer for 3 hours at 37° C. After incubation on Agar plates overnight at 37° C., the number of colony-forming units (CFUs) at each peptide concentration was determined. Using untreated bacterial aliquots as baseline, the minimum inhibition concentration (MIC) was defined as the lowest concentration that inhibits the growth of 90% of the inoculation, and the minimum bactericidal concentration (MBC) was defined as the lowest concentration at which less than 99.99% of the initial inoculum is viable.
(In broth dilution the organism is exposed to a series of concentrations in liquid medium.)

Test [2] relates to Staphylococcus saprophyticus (ATCC 15305). The test is described as above. The class given is cell-based. The settings on record: for MIC/MBC fold higher than full-length protein, S. saprophyticus: compared to full-length RNase 7; for S. saprophyticus MIC: lowest concentration that inhibits the growth of 90% of the inoculation; for S. saprophyticus MIC / S. saprophyticus MBC: 3 hours, 0.1×PBS; for S. saprophyticus MBC: minimum bactericidal concentration. The protocol: as §1, §2

Test [3] relates to Escherichia coli (UTI89). Description: SYTOX Green bacterial cell death / membrane permeabilization assay. The class given is cell-based. Conditions: 3 hours, FIG. 1, compared to full-length. The protocol: (§3) Assays of the permeabilization of bacterial membrane were performed with SYTOX green nucleic acid stain (Invitrogen™). The overnight cultures of bacteria were centrifuged at 5000 rpm for 5 min, the pellets were then washed with water and resuspended in water with an OD=0.5. 90 μl of each bacteria were then incubated with 10 μl of peptides with different concentrations for 3 hours at 37° C. in a 96-well plate. 100 μl of 2 μM SYTOX Green (Invitrogen™) were then added to each well and incubated in dark for 15 min. SYTOX green penetrates cells with compromised membranes not the membranes of live cells. The increase of fluorescence was measured using […] filters for excitation and emission wavelengths, respectively. Bacteria alone and bacteria treated with 70% ethanol were used as controls and the fluorescence from each was recorded as Fmin and Fmax. The percentage of cell death at each concentration for each fragment was calculated as below: death %=(F−Fmin)/(Finax−Fmin)*100%
(§4) To confirm the accuracy of our MIC/MBC data, cell death assays using SYTOX Green (Invitrogen), which selectivity labels nucleic acids of cells with compromised membranes of dead/dying cells were performed. Overnight cultures of bacteria were centrifuged at 5000 rpm for 5 minutes. Pellets were then washed with PBS (pH 7.4) and resuspended in PBS to an OD600 of 0.5 for Escherichia coli (UTI89) and OD600 of 0.8 for Staphylococcus saprophyticus. Per manufacturerer's instructions, 90 μl of each bacteria strain were incubated with 100 μl of 2 uM SYTOX Green for 15 minutes. Ten microliters of peptides at various concentrations were added for 3 hours at 37° C. in a 96-well plate. Compromised bacterial membranes of dead/dying cells will be labeled while lives cells are not labeled as noted by Invitrogen. Fluorescence was measured using 485 and 520-nm filters for excitation and emission wavelengths, respectively. Untreated bacteria were used as a 100% live control, and fluorescence was noted as Fmin. To elicit complete killing, bacteria were treated with 70% ethanol for 1 hour. This experimental group's fluorescence was noted as Fmax. The percentage of cell death at each concentration for each fragment was calculated as (Ffragment−Fmin)/(Fmax−Fmin)×100%.

Test [4] deals with Staphylococcus saprophyticus. The test is described as above. It counts as cell-based. Conditions: 3 hours, FIG. 2, compared to full-length. The protocol: as §3, §4
The subject of test [5] is Proteus mirabilis (ATCC 7002). Kind of test: Antimicrobial kill (microdilution) assay, MIC/MBC by CFU count. Conditions: 3 hours, 0.1×PBS; for P. mirabilis MIC: lowest concentration that inhibits the growth of 90% of the inoculation; for P. mirabilis MBC: minimum bactericidal concentration. The class given is cell-based. The protocol:
Uropathogenic Escherichia coli (UTI89) was grown in Luria broth (LB) medium and plated on LB-agar. Uropathogenic Staphylococcus saprophyticus (ATCC 15305) was grown in LB and plated on Trypticase Soy Agar with 5% sheep blood (Fisher Scientific, Pittsburgh, Pa., USA). Uropathogenic Proteus mirabilis (ATCC 7002) was grown in LB and plated on MacConkey II Agar (Fisher Scientific, Pittsburgh, Pa., USA). These organisms were chosen as the primary organisms that account for a majority of Gram-negative and Gram-positive urinary tract infections (UTI). Anti-RNase 7 antibody was generated in rabbit with recombinant human RNase 7 (Biomatik, Wilmington, Del., USA)
as §2

Test [6] deals with uropathogenic E. coli. Description: RNase7 antibacterial activity, MIC on strains isolated from positive urine cultures. It counts as cell-based, Escherichia coli. Conditions: uropathogenic E. coli isolated from urine cultures (N=3). From the text:
Laboratory bacterial strains from the American Type Culture Collection (ATCC, Manassas, Va.) and strains isolated from positive urine cultures were obtained from the Microbiology Laboratory at Nationwide Children's Hospital.

Regarding “F:46-97: recombinant middle RNase 7 fragment, amino acids 46 to 97, beta sheets 2-4, N-terminal His tag ({His tag}-EPFSSVAATCQTPKIACKNGDKNCHQSHGPVSLTMCKLTSGKYPNCRYKEKR; ends and bridges not checked)”, in test [1], the “MIC/MBC fold higher than full-length protein, E. coli” value was “two-fold higher”; the “E. coli MIC” value was determined as 0.88 µM; the “E. coli MBC” value was determined as 1.75 µM. Further, in test [2], the “MIC/MBC fold higher than full-length protein, S. saprophyticus” value is listed as “two-fold higher”; the “S. saprophyticus MIC” value is 0.44 µM; the “S. saprophyticus MBC” value was 1.75 µM. Also, the “membrane permeabilization and death, E. coli (in words)” value in test [3] was “enhanced permeabilization and death compared to the full-length protein; also recorded: potent membrane penetrating activity”. Besides, in test [4], the “membrane permeabilization and death, S. saprophyticus (in words)” value is “no activity compared to full length protein; also recorded: negligible activity against S. saprophyticus”. Moreover, in test [5], the “P. mirabilis MIC” value came out at 3.5 µM and the “P. mirabilis MBC” value is >3.5** uM.

B1: F:30-97: recombinant middle RNase 7 fragment, amino acids 30 to 97, first four beta sheets, N-terminal His tag (protein)
chain: {His tag}-INKHTKRCKDLNTFLHEPFSSVAATCQTPKIACKNGDKNCHQSHGPVSLTMCKLTSGKYPNCRYKEKR
modifications: ends and bridges not checked
notes: recombinant middle RNase 7 fragment, amino acids 30 to 97, first four beta sheets, N-terminal His tag
Consider B1, for which, in test [1], the “MIC/MBC fold higher than full-length protein, E. coli” value is reported as “two-fold higher”; the “E. coli MIC” value was 0.44 µM; the “E. coli MBC” value was determined as 0.88 µM. Moreover, in test [2], the “MIC/MBC fold higher than full-length protein, S. saprophyticus” value is “two-fold higher”; the “S. saprophyticus MIC” value is 0.44 µM; the “S. saprophyticus MBC” value is on record as 1.75* uM. Further, the “membrane permeabilization and death, E. coli (in words)” value in test [3] is reported as “less activity when compared with full-length RNase 7”. For the same molecule, in test [4], the “membrane permeabilization and death, S. saprophyticus (in words)” value is recorded as “less activity when compared with full-length RNase 7”. Besides, in test [5], the “P. mirabilis MIC” value was >3.5** uM and the “P. mirabilis MBC” value was >3.5** uM.

B2: F:1-71: recombinant N-terminal RNase 7 fragment, amino acids 1 to 71 (SEQ ID NO: 3), N-terminal His tag (protein, listed as Homo sapiens)
chain: KPKGMTSSQWFKIQHMQPSPQACNSAMKNINKHTKRCKDLNTFLHEPFSSVAATCQTPKIACKNGDKNCHQ
modifications: N-terminal His tag
For the molecule B2, the “mean inhibitory concentration (MIC)” value in test [6] amounted to 0.63 µM. In test [1], the “MBC against E. coli” value turned out to be 3.86 µM; the “MIC against E. coli” value is 1.93 µM; the “antimicrobial activity against E. coli (in words)” value is listed as “lower activity against E. coli; also recorded: markedly reduced activity against E. coli”; the “MIC/MBC fold higher than full-length protein, E. coli” value is on record as “seven-fold higher”. In test [1], the “E. coli MIC” value is reported as 1.93** uM and the “E. coli MBC” value stood at 3.86 µM. Moreover, the “antimicrobial activity against E. coli (in words)” value in test [1] (listed as 1-71) is “least activity; also recorded: significantly decreased activity”. In test [2] (MIC/MBC based, mostly compared to full-length RNase 7), the “antimicrobial activity against S. saprophyticus (in words)” value was “shows antimicrobial activity against S. saprophyticus; also recorded: same activity to S. saprophyticus as full length protein”. Further, in test [2], the “S. saprophyticus MIC” value was determined as 0.23 µM and the “S. saprophyticus MBC” value was >0.92* uM. Also, the “membrane permeabilization and death, E. coli (in words)” value in test [3] was “lower permeability against E. coli”. Besides, in test [4], the “membrane permeabilization and death, S. saprophyticus (in words)” value was “shows permeability against S. Saprophyticus”. For the same molecule, in test [5], the “P. mirabilis MIC” value was “.44 µM” and the “P. mirabilis MBC” value is “.88 µM”.
